Assay results taken from the DeepSol protein solubility set.

Assay: soluble on expression in E. coli; label from the status in PepcDB or PDB records

Row | Sequence | soluble on expression in E. coli
1 | MSLETSDAPHSSLVGNSVFVTHPDLKRLFQMAVSKSVREILIPAVEKAANMAVQSTVNIVLKDFATEVDEQKLKTAAINMVQYLAQNVAHSISVPLLKDTIRNTTQSLTPNLINMTNSPIAELNTAIDDNIAIAVSPIEKAAVERAIQEVNEKLVQAVAVRRYHLERRSDQPFVAQNINRFSLNLPDPLGLKPTGVTREQFSLYEQFPASMPSDSSRSPLETILAQEGHHHHHH | soluble
2 | MGSDKIHHHHHHMYEKYIVEGLSDREIAYLIGCGKATVVRARQKHGIYREDVKMCDDYTLDNISEDLRTFIDGLLLGDACITEKGNLLITQNKRYDWLEYVKHRFQQFGLNVYFHCYKYKRRTSEVIADLYVLSTSRYELFRQLRERWYPDGIKRIPNDLVINDEGLAQWYLGDGSLTKQKNGYKLELSTHGFTLDENKFLQQKLKLLYGFDFRISKKHQYRYLRLFKSKQVHAFCSIVEPFIPPSYRNKVRCLHDYQWLKSWDVI | not soluble
3 | MGSDKIHHHHHHMQIKALIYFDELVRTRSMRAAAERLNVQPTAFARQIDQLEHYFGTVLIERSSRGIQLTAAGELLAARAGKTLRELNHVHQLIDDLQGLKRGHVTIHANGATVANLLAPALADFSLVYPNIRFSVTISSAGQAMEALSSAKADMAVTLFSEPDPGIRVRARAQIVYDVIAASHHPAAHLAEMTVTELARFPLAVPDGSFGARRAFDAWFSKAGLELDPVFVTGSLEMQRELVLRGAALTLLPAQTVARERRSGELVVIPVAGGAGIRTPIDLCVAGDRQLSFAASKLVDAVERFMREQMGK | not soluble
4 | ISFVIAAPEAIAAAATDLASIGSTIGAANAAAAANTTAVLAAGADQVSVAIAAAFGAHGQAYQALSAQAATFHIQFVQALTAGAGSYAAAEAASAASITSPLLDAINAPFLAALGRPLIGNGADGAPGTGAAGGAGGLLFGNGGAGGSGAPGGAGGLLFGNGGAGGPGASGGALG | not soluble
5 | MDDSSEEANQFEPPPAIRKSTRAVNNLSPHQKEVRCQCGTNNTDNRLIKCVECEKWQHAICMSVMPLDIIMTYKCEMCEPRLLMVSRSQARAYQGVEPEPREVRKKGRNQSVNLEEFLEFLSEASENISRPLALTTLFEDYKEHINYPQSVRILRKQLESNLLETISMSPNYYADRKAQMLFAMGLRVKGEFLERLERNAVVEVDGYHRITFYKSKNLEFRGKHRVGRFPLVNRRKSAESTSQQHGNSGEEDDDDIFIDLVVPVTGNSRWNQFPVKQEIPDEQSFGSASTLPNAEIEPNLQYSLSDTMTTGSASTWNMAATPPSEMRGIMMESMNGLHALQSASYPPYQEMQEMLCVQHTMMKSMHEIIKTQSDFYREMFKTRAIAGAPPAPATTSLRAFLHFLKGYVDYLESEQLVDCSRLTQQHLETCRAADKLISMEKLLTGLAVATTIAEAHLSDVSAIINGASAMEFYKFIEIYASNQSNSAFSGLCTDLKQKIQALVNMDKKIPFKELSRAFRTAISLVSQ | not soluble
6 | DKVSLKLPKSNGELFEFKWLDHKIAYIALNGFHDKKILQDFNDVYDEIKQSRGLIIDLRFNGGGNSSIAAEILSHFTNKGLEGSIWKNRKHIAAFKAWGNYSGKYKIYAQDNAWESGAMESLKAKENSHIVPTYVLIGRNTASAAEDFLIYADKLKHFTTLGENTYGSTGQPIFFDLPGGGSFRICTKRDTYPDGREFVGYGITPQVIIDRMPEHLRSEKDIVLYSAIKKLKEKI | not soluble
7 | EEHLSVMYERLRQELPKLFLQSHDYSLYSLDVEFINEILNIRTKGRTWYILSLTLCRFLAWNYFAHLRLEVLQLTRHPENWTLQARWRLVGLPVHLLFLRFYKRDKDEHYRTYDAYSTFYLNSSGLI | soluble
8 | MPLEASELKPTAGPLEASELKPTAGPLEASELKPTAGPLEASELKPTAGPLEASELKPTAGPLEASELKPTAGPLEASELKPTAGMIVVYVFVYAFKAVKQYFYPSDNLKVLMHKFTDMVNFTINIMIEKNLTSRNSVSNEVYHKLKEYEIPSYYYIEAINKAVALVKTYRKRLKKKQKATVPHVEKPMLSTYYGFKIVGGNIMIPIANREYESIPLNAYVRDATSMVKVHSFALSAYTLSLTIGRDVDAIECTTTVGVDRNLRNITVGNEFHHEIYDLSNIVEIKQRYRKKESHFHRNDRRIREKILSKYGKRERNRVKQIMHETSKAIVSNASTKKEMIVLENIIGINQITKKGDGKGKDYRFLLKNAFPYGMLASQVMYKASWEGLPVIELTRKETRNTSRMCSVCGSLTRIEHGRILKCDSCGLEIDRDVNACINIAFRYRTCLKRSHKGLPGEAVKQSKDVEQMAGSQISMDILEHHHHHH | not soluble
9 | MGSDKIHHHHHHMRINHNISALNAWRNISQTQYSMSKTLERLSSGLRINRAGDDAAGLAISEKMRGQIKGLNMAIKNAQDAISLIQTAEGALTEVHSILQRMRELAVQAASDTNTDVDREQIQKEIDQLREEIDRIARTTEFNTKKLLDGKLESFRSQVDAKVVTGGNINVQLGSVSSAAVEGTYVIEVGQFNGAETSELDVKITLFTAGGYSTTVVTITVGSATVGNINFTWDTDVLSINDFGGALPKNEVVDSAVVRVEAIYTSASQLIFQIGANEGHNMVAGIDDMSAAALGLTTVSLDVTTQDAAERAIMVVDAAIHRVSTARAALGAVQNRLEHTISNLGVAAENLTAAESRIRDADMAKEMMEFTKQQILLQSSMAMLAQSNTLPQNVLQLMR | not soluble
10 | MGSDKIHHHHHHMIRVLLANPRGFCAGVDRAIEIVERALAMYGAPIYVRHEVVHNRFVVEDLEKKGAVFVENLEEVPEGSMLIFSAHGVSHEVRREAAARKLQIFDATCPLVTKVHVEVAKMDKEGKEIVMIGHQGHPEVEGTMGQIAKSKGTMYLVETAEDVARLQVKNESNLAYVTQTTLSVDDAARVIEALKQRFPKIIGPKKDDICYATQNRQDAVKKLVKLCDLVVVVGSPNSSNSNRLCEVARNENVEAYMVDQAEQLQESWLTNKRCIGITAGASAPEILVQQVLERLEQIAAKQSNQGVIIEELSGVLESVTFPLPKAEPVSFNKYI | not soluble
11 | MGNDKRSQIFTLSRYAGILRRCLKENAMSAQKPGLHPRNRHHSRYDLATLCQVNPELRQFLTLTPAGEQSVDFANPLAVKALNKALLAHFYAVANWDIPDGFLCPPVPGRADYIHHLADLLAEASGTIPANASILDIGVGANCIYPLIGVHEYGWRFTGSETSSQALSSAQAIISSNPGLNRAIRLRRQKESGAIFNGIIHKNEQYDATLCNPPFHDSAAAARAGSERKRRNLGLNKDDALNFGGQQQELWCEGGEVTFIKKMIEESKGFAKQVMWFTSLVSRGENLPPLYRALTDVGAVKVVKKEMAQGQKQSRFIAWTFMNDEQRRRFVNRQRLEHHHHHH | not soluble
12 | MAHHHHHHMLFYITPFPHSEVMRVEEQHQLFLAAKEAQLVRNEATQIILSDASHHSALHGAFVRVLVELPDQSDSYIIARVGAVTTGEPYDGFSHNTSTRTDKYLVLVLPHSLASINGTQYQLNSISNSPMTEDEFNLWLSTMQEPGSVPACAYRGVVEDTDAHLYLESSKIPSRQELLAIGGRIHALGSAASQNSRNPNSRRRRSNNGSSEQSLQQPEWMPKEQQMAIPRISSGNGATLGSIAGMQDYSAFMANPTGGAGPQNGANFNHTNSDPLPSTAGVTEGTNEPSLFVEPTTPRPASATEQELDLPSRHQIRQDILNKLNHRSVVFPQNIDELKLSQLRLVERDMIEYLEHVRDVLSSKQENCVVCLDHVPTVISLPCRHKVLCRLCASAVSTCPVCRSHLFELFEPKEI | not soluble
13 | MISENYSRNLVGYGRNAPDPKWPGGARIAVQFVINYEEGGESCILDNDKASESLLSEIVGAQPWPGQRNLNMESIYEYGSRAGFWRLWRMFTGLGVTTTVYGVTAAMARNPEAVAAMKEAGWEIASHGYRWLEYKDFSEEEERKHIVEAVHLHTELTGERPYGMYQGKPSDNTLRLVMEEGGFLYSSDSYADDLPYWVKGVGDEPFLIIPYTLDTNDMRFATPQGFNSGDQFFTYLKDAFDVLYQEGVEGAPKMMSIGLHCRLVGRPGRAAALRRFIEYVLGHEKVWIPQRLEIARHWHEHHKPETP | not soluble
14 | GHMIKGEQKRYSEMTKEELQQEIAMLTEKARKAEQMGMVNEYAVYERKIAMAKAYMLNPADFHPGEIYEIEGAPGEYFKVRYLKGVFAWGWRLKGNGEEEALPISLLRKPNLPQS | soluble
15 | MDIMNEKVKKIIEFMDKNSIDAVLIAKNPNVYYISGASPLAGGYILITGESATLYVPELEYEMAKEESNIPVEKFKKMDEFYKALEGIKSLGIESSLPYGFIEELKKKANIKEFKKVDDVIRDMRIIKSEKEIKIIEKACEIADKAVMAAIEEITEGKKEREVAAKVEYLMKMNGAEKPAFDTIIASGYRSALPHGVASDKRIERGDLVVIDLGALYQHYNSDITRTIVVGSPNEKQKEIYEIVLEAQKKAVESAKPGITAKELDSIARNIIAEYGYGEYFNHSLGHGVGLEVHEWPRVSQYDETVLREGMVITIEPGIYIPKIGGVRIEDTILITKNGSKRLTKTERELI | soluble
16 | MGSDKIHHHHHHTEDTFWKDETDFNLALTSCYTPLKNALNGGYYGTRGVMLRIARADEVDFRNDISDVYTVNRFTNSNTNSLTQGMFYQFYNALYRTNSIMQKLEEKKEQFSTDFQNSVKGECLFIRGFYLFQLAKEFKDAPLRLTASQSPSTFPLAKSSQADIWAQAKEDLKTAASLLPITNKIGKPTQGAAYAALGKIYVYEENWQEAINVLEPLTQNPYTYKLVEDFNWNFDDTHENNAESIFELLIEDVGGTDLWGDGENINSTQSNTRPKEYAAAEVGGWYEANPTQQIMDIFWKEKDKDGNFDYRARCSVAWDYEGCTYYQRPFREVFAQDKWKTYWILKYQNWKTQKDEPAPPKSFINERAIRYADVLLMLAEAYMNKGALDTSIGYINQIRRRANLNDYSGPITKEGVFEDLVHQRAIEFFVEGERFYDLRRWGLLEQTLKTCDDTRYKNYQTGKSDNINKFNYFPIPAKELDTNPLCTPSEGW | not soluble
17 | MRADGRSSCELRPVHIHPHYMKHAEGSVLIEIGDTKVICTATVEEKVPSFMRGGGKGWITAEYGMLPRATEQRNVREASKGKVSGRTMEIQRLIGRALRSVVDLEQLGERTIWIDCDVIQADGGTRTASITGAYVALVLALAKLVEEGKLEALPIRDFLAATSVGIDPEHGVILDLDYNEDARAKVDMNVVMTGAGQFVEIQGTGEEAVFSRAELDELLEAAQIGIEQLIAVQRRALGEWAARIGEKKEAAEEDTE | not soluble
18 | MSMIETWTAVDQYVSDVLIPKDSTLEEVLQVNAAANLPAHDVSPTQGKFLQLLVQIQGARNILEIGTLGGYSTIWLARGLSSGGRVVTLEASEKHADIARSNIERANLNDRVEVRTGLALDSLQQIENEKYEPFDFIFIDADKQNNPAYFEWALKLSRPGTVIIGDNVVREGEVIDNTSNDPRVQGIRRFYELIAAEPRVSATALQTVGSKGYDGFIMAVVKE | soluble
19 | MRKNILIFSLIAFSLTIHCSEIRVQRSLEESITKDYDQDGVYSSYEKALRRTQESVYVTLPEKRGYWYTMLDRIKAEEKELIPDEKVRMRKR | not soluble
20 | GPGSMKPLRIKKRESAGTPAEDEALTGLTSSASSVAAGSLAPRHVPSPPAVKGGRLPAHPGHDSGPSPAAATPAPTAKVSAAVKFSSELDNAAVEAYLEYLTHPHMSWESASRHVAHCREVIEEHRNSIYARSLAMLRRSSFASTIGSEGGDLDALETSTTSSVASAPAGFPRTAPNGSNKATGTLRKGRLGDAGSPLLPSDAAEPLAIVAHSSAAVSSSHSADSASCTSTGTGQRAPSNKGRLLRGPALAGPPRPHRTSSSATAPAAVGESVLGVGGAKLLGGSGSVFLVNGRSSAVTSRTASRDSTDRLPPVAPQGGGESLIHCKRTGGARAAVPSPQPKHRLK | soluble
21 | MRGSHHHHHHMSDEEHTFETADAGSSATYPMQCSALRKNGFVVIKSRPCKIVDMSTSKTGKHGHAKVHLVAIDIFTGKKLEDLSPSTHNMEVPVVKRNEYQLLDIDDGFLSLMNMDGDTKDDVKAPEGELGDSLQTAFDEGKDLMVTIISAMGEEAAISFKEAARTD | soluble
